From patent US10227575B2, “Multi-domain enzymes having cutinase activity, compositions comprising same and uses thereof” (OZYMES, priority 2015, dated 2019)

Tests used:
[1] = Degradation of poly(1,3-propylene adipate); conditions: 2.5 μM, after 24 hours
[2] = Substrate range on p-NP esters, KrCUT versus KrCUT189; type: biochemical
Procedure: Esterase activity was determined by monitoring the formation of pNP at 410 nm from various pNP-esters using a Beckman UV spectrophotometer (model DU 640) (21). Substrates were dissolved in isopropanol and were added to 50 mM sodium phosphate buffer pH 8.0 to give 10% (v/v) total isopropanol concentration in a 1 mL reaction volume. pNP-butyrate was used at a final concentration of 1.2 mM. For pNP-caprylate, myristate and palmitate, the final concentration ranged from 0.1 to 0.5 mM. The reaction (1 mL) was started by adding an appropriate amount of enzyme. One enzyme unit (U) is defined as the amount of enzyme that produced 1 μmol of product (pNP) per min; specific activity is expressed as U/mg protein. A molar extinction coefficient of 15 mM^−1 cm^−1 for pNP is used for calculating enzyme activity.

[3] = Long term stability of KrCUT in culture medium; type: physicochemical; conditions: for Activity (U/mL): culture medium at 4° C.
[4] = Stability of KrCUT in stabilisation buffer; type: physicochemical
Procedure: For stability testing, culture medium showing KrCUT activity, and containing 100 mg total protein was used. Stabilisation buffer composed of sodium gluconate 1-5%, sodium carbonate 1-5%, sodium citrate 1-5% and propylene glycol 1-5% was prepared; 50 mL enzyme solution was added to 200 mL of buffer and stored at room temperature, after mixing. Samples were taken at defined time periods and the enzymatic activity was measured using p-nitrophenyl dodecanoate as substrate.

[5] = Thermostability of purified KrCUT (40-60° C.); type: biochemical
Procedure: Enzyme stability was studied over the temperature range of 40-60° C. using purified KrCUT. Aliquots were withdrawn at defined times (10, 30 and 80 min), chilled on ice, and assayed for activity against p-NP butyrate at room temperature. KrCUT appeared thermostable up to 45° C.

[6] = Degradation of polylactic acid; conditions: 2.5 μM; 2 Units
[7] = Hydrolysis of cutin, GC-MS of released monomers; type: biochemical, Apple (Golden Delicious)
Procedure: Apple (Golden Delicious) cutin was used as substrate. The outer layer of the fruit was peeled by hand and cutin preparation carried out as described by Gerard et al. (1993) with minor modifications. Discs of apple peels were incubated at 50° C. in oxalate buffer [(oxalic acid (4 g/L)/ammonium oxalate (16 g/L)] for 16 h and then collected and washed several times with deionized water. The sample was treated with 0.5% Novozymes Aspergillus niger pectinase (Sigma P2736) in 100 mM phosphate citrate buffer pH 5.8 for 16 h. The cutin sheets were washed with ethanol, followed by several washes with chloroform, and then incubated in chloroform at 45° C. for 16 h, and finally dried to constant weight. The cutin was ground in a Cyclone sample Mill (UDY Corporation, Fort Collings, Colo., USA).
A typical reaction mixture (2 mL) contained 20 mg cutin and an appropriate amount of cutinase in 25 mM sodium phosphate buffer, pH 8.0. The mixture was incubated in a water bath at 37° C. with gentle shaking for 16 h. Assays were conducted in duplicate. At the end of the reaction, the remaining cutin was removed by centrifugation (10 min, 5000 rpm). The resulting solution was acidified with hydrochloric acid and cutin monomers extracted with chloroform/methanol, according to Bligh and Dyer (1959). The organic phase was removed by evaporation under an air stream and the dried residue dissolved in 1 mL chloroform/methanol (85:15) and used for further derivatization. Trimethylsilylation of cutin monomers was performed with BSTFA [N, O-bis(trimethylsilyl) trifluoroactamide] and TMCS (trimethylchlorosilane) provided by the supplier in the ratio 99:1 (Supelco, Bellefonte, USA) at 70° C. for 3 h, and the composition of the mixture determined by GC-MS.
Cutin monomers were identified by GC-MS on an Agilent 6890 gas chromatography system coupled to a 5973 quadrupole mass spectrometer. 1 μL was injected under splitless condition on a 50 m×0.20 mm×0.33 μm DB-5MS capillary column (Agilent). The oven temperature program was 70° C. (for 1.39 min) to 136° C. at 64° C./min and to 290° C. at 2.5° C./min (for 55 min). Helium was used as carrier gas. The temperature at the injection port was 250° C. The detector was run in El mode at 70 eV. Masses were scanned between 50 and 650 amu.
Components were identified by comparison of the MS spectra of their trimethylsilyl (TMSi) derivatives, as methyl ester TMSi ether or as TMSi ester TMSi ether, with published spectra (Kallio et al., 2006; Philipps et al., 2002).
To measure cutinase activity, assays of cutin hydrolysis were performed as described in Example 1, section 1.7 at two different enzyme concentrations. Characteristic cutin components, C16 and C18 hydroxyl fatty acids, were identified by GC-MS analysis.

B1: KrCUT: mature Kineococcus radiotolerans cutinase, amino acids 34-294 of SEQ ID NO: 1; SEQ ID NO: 6 (protein)
chain: ATCSDVDVVFARGTGETPGLGVVGGPFVRSLTGELSDRTVTSHAVDYAASSSQASAGPGATAMSAHVREVAAACPSTRFVLGGYSQGATVTDIALGIRTGTTTGTPVPAELAGRVAAVVVFGNPLGLSGRTIATASSTYGPKSKDYCNSSDSVCGSAPKTGTGGHLSYASNGSTTDGARFAAGLVRAAGTPTTPTPTPTPTPVPTTCVRDSTRDHVAADRAVSLYGRAYARGSRDSLGATSSYNVVSLQQVEGGWRLVTAC
modifications: Kineococcus radiotolerans; (1)..(261) KrCUT (lacking residues 1-33 of ssKrCUT)
adipic acid found in the reaction mixture [1]: 12%
activity towards pNB-acetate [2]: little activity
fold higher activity with pNP butyrate over pNP-palmitate [2]: 8 fold
substrate giving the highest activity ([2]; p-NP esters): pNP butyrate
Activity (U/mL) ([3]; 0 months): 3.0 ± 0.94 U/mL
Activity (U/mL) ([3]; 3 months): 25.67 ± 0.94 U/mL
Activity (U/mL) ([3]; 4 months): 17.13 ± 0.70 U/mL
Activity (U/mL) ([3]; 17 months): 16.66 ± 2.47 U/mL
Activity (U/mL) ([3]; 19 months): 21.94 U/mL
activity retained ([3]; room temperature, culture medium without additives, 4 months): full activity
initial activity present ([4]; 9 months at room temperature): up to 65%
time after which activity loss could be observed ([4]; room temperature): 4 months
thermostable up to ([5]; 10, 30 and 80 min heat treatment): up to 45 °C
activity left after heat treatment ([5]; 50° C. and above, 10 min): virtually no activity left
PLA degraded [6]: approximately 5%
10,16-dihydroxyhexadecanoic acid released, Area (%) ([7]; 20 Units cutinase): 39.25 ± 2.5%
18-hydroxy-octadeca-9,12-dienoic acid released, Area (%) ([7]; 20 Units cutinase): 18.0 ± 6.3%
9,10,18-trihydroxyoctadec-9 enoic acid released, Area (%) ([7]; 200 Units cutinase): 6.25 ± 0.40%
9,10,18-trihydroxyoctadec-10,12-dienoic acid released, Area (%) ([7]; 200 Units cutinase): 13.25 ± 0.40%
9,10,18-trihydroxyoctadecanoic acid released, Area (%) ([7]; 200 Units cutinase): 25.55 ± 0.10%
9,16-dihydroxyhexadecanoic acid released, Area (%) ([7]; 200 Units cutinase): 3.81 ± 0.62%
10,16-dihydroxyhexadecanoic acid released, Area (%) ([7]; 200 Units cutinase): 27.74 ± 0.41%
18-hydroxy-octadeca-9,12-dienoic acid released, Area (%) ([7]; 200 Units cutinase): 2.22 ± 0.13%
